According to FireProtDB (doi:10.1021/bi300982v):

B1: Cytochrome c-552, P04164 (parent)
chain: QADGAKIYAQCAGCHQQNGQGIPGAFPPLAGHVAEILAKEGGREYLILVLLYGLQGQIEVKGMKYNGVMSSFAQLKDEEIAAVLNHIATAWGDAKKVKGFKPFTAEEVKKLRAKKLTPQQVLAERKKLGLK

Variants of: B1
Settings: Thermus thermophilus, pH 7, sodium phosphate 50 mM, transition: 2, reversible: yes, structure 1C52, whole UniProt chain shown; for denaturant midpoint (higher = more stable): 25 °C, GdnHCl; for Tm / change of melting temperature, mutant - wild type (higher = more stable) / heat capacity change of unfolding / unfolding enthalpy (calorimetric) / unfolding free energy: Thermal, CD

Row | Variant | denaturant midpoint (higher = more stable) (absorbance) [M] | denaturant midpoint (higher = more stable) (far-UV-CD) [M] | denaturant midpoint (higher = more stable) (heme-CD) [M] | Tm [°C] | change of melting temperature, mutant - wild type (higher = more stable) [°C] | heat capacity change of unfolding [kcal/mol/K] | unfolding enthalpy (calorimetric) [kcal/mol] | unfolding free energy [kcal/mol]
1 | M69H | 3.7 | 4 | 3.3 | 99 | 4 | 0.51 | 59.3 | 8.13
2 | M69A | 4.2 | 4.7 | 4.5 | 93 | -2 | 0.29 | 28.2 | 2.39
